Assay results as given in patent publication US20180318355A1, “METHODS AND COMPOSITIONS FOR IMPROVED TISSUE REGENERATION BY SUPPRESION OF INTERFERIN-GAMMA AND TUMOR NECROSIS FACTOR-ALPHA” (Alfred E. Mann Institute for Biomedical Eng. at the …, priority 2011, published 2018).
Entries after “also recorded” stand apart in the source; their conditions may differ. Where a SMILES comes first, the peptide text is derived from it. The star is where a group is joined. Cbz = O=C(OCc1ccccc1)*; CH2F = FC*

Experiments:
[1] = test system: Fas, caspase 8, caspase 3; assay: Western blot of Fas, cleaved caspase 8 and cleaved caspase 3 in BMMSCs; type: cell-based, mouse; settings: for cleaved caspase 3 in IFN-γ/TNF-α-treated BMMSCs / cleaved caspase 8 in IFN-γ/TNF-α-treated BMMSCs: siRNA or inhibitor treatment before IFN-γ/TNF-α
Procedure: (§1) Western blot analysis. Total protein was extracted using M-PER mammalian protein extraction reagent (Thermo, Rockford, Ill.). Nuclear protein was obtained using NE-PER nuclear and cytoplasmic extraction reagent (Thermo). Protein was applied and separated on 4-12% NuPAGE gel (Invitrogen) and transferred to Immobilon™-P membranes (Millipore). The membranes were blocked with 5% non-fat dry milk and 0.1% tween-20 for 1 hour, followed by incubation with the primary antibodies (1:20¬1000 dilution) at 4° C. overnight. Horseradish peroxidase-conjugated IgG (Santa Cruz Biosciences; 1:10,000) was used to treat the membranes for 1 hour, and enhanced with a SuperSignal® West Pico Chemiluminescent Substrate (Thermo). The bands were detected on BIOMAX MR films (Kodak, Rochester, N.Y.). Each membrane was also stripped using a stripping buffer (Thermo) and reprobed with anti-β-actin antibody to quantify the amount of loaded protein.
(§2) SiRNAs for Fas, TNFR2, IKK, FLIP and XIAP were used to treat the BMMSCs according to the manufacture's instruction, and IFN-γ and TNF-α were added for 24 hrs. Inhibitors for internalization (Latrunculin A, 0.2 μM), pan caspase (Z-VAD (OMe)-FMK, 50 μM), caspase 8 ([…], 20 μM) and caspase 3 (Z-DEVD-FMK, 20 µM) were used to treat the BMMSCs at 4 hrs before IFN-γ and TNF-α were added. Cell apoptosis were analysis by immunofluorescence staining and FACS^Calibur (Annexin V-PE apoptosis detection kit I) and Western blot analysis for caspase 8, cleaved caspase 8, caspase 3 and cleaved caspase 3.

Fas = Fas internalization (immunocytochemical staining); type: cell-based, mouse; settings: caspase inhibitor in IFN-γ/TNF-α-treated BMMSCs vs control group
Procedure: as §2
Fas internalization. P1 BMMSCs were seeded to 2-well chamber slide. IFN-γ (50 ng/ml) was added to pre-treat BMMSCs for 24 hours, and then TNF-α (20 ng/ml) was added. At the 0.5, 1, 2, 4 hours after TNF-α was added, the cells were washed by PBS twice, and fixed with 4% PFA for 15 min. After treated by Triton-X 15 min, the cells were blocked with normal serum matched to secondary antibodies, incubated with 1 μg/ml anti-Fas (Santa Cruz) antibody at room temperature for 2 hours, treated with Rhodamin-conjugated secondary antibodies (1:200, Jackson ImmunoResearch). Then the cells were incubated with ([…] (1:40; Invitrogen) at room temperature for 20 min, and were mounted by vectashield mounting medium DAPI (Vector Laboratories).

BMMSCs [2] = assay: siRNA and inhibitors: IFN-γ/TNF-α-induced BMMSC death; type: cell-based, mouse; settings: siRNA or inhibitor treatment before IFN-γ/TNF-α, toluidine blue staining
Procedure: as §2

BMMSCs [3] = assay: Cell apoptosis and cell survival assay in vitro (toluidine blue, Annexin V); settings: for BMMSC death / viability: single cytokine, 1-200 ng/ml, three days
Procedure: Cell apoptosis and cell survival assay. 0.5×10^6 BMMSCs were seeded to 6-well culture plate and co-cultured with different doses of recombined IL-4, IL-6, IL-17A, TGF-β1, TNF-α and IFN-γ (0, 10, 20, 50, 100, 200 ng/ml) for 3 days. To measure the cell viability, the total cells were analyzed by using a cell counting kit-8 (Dojindo Molecular Technoloies, Gaithersburg, Md.) according to the manufacture's instruction. And the culture plates with cells were stained with 2% toluidine blue O and 2% paraformaldehyde (Sigma-Aldrich Corporate, St. Louis, Mo.).
For cell apoptosis analysis, the BMMSCs were stained by Annexin V-PE apoptosis detection kit I (BD Bioscience) following manufacture's protocol, and analyzed by FACS^Calibur (BD Bioscience).
IFN-γ and TNF-α synergism for apoptosis. For cell apoptosis staining, the 1×10^4 BMMSCs were seeded onto two chambers slide, IFN-γ (50 ng/ml) and TNF-α (20 ng/ml) were used to treat the BMMSCs for 24 hrs either separately or combined, Annexin V-PE apoptosis detection kit I (BD Bioscience) was used to stain the BMMSCs following manufacture's protocol, and analyzed on microscopy and FACS^Calibur (BD Bioscience). Cell viability was analyzed by using cell counting kit, and culture plates were stained with 2% toluidine blue O and 2% paraformaldehyde.
IFN-γ and TNF-α synergism for apoptosis. 0.5×10^6 BMMSCs were seeded to 6-well culture plate and co-cultured with different doses of TNF-α (0, 5, 50, 100 ng/ml) with or without IFN-γ (50 ng/ml) for I day. Then, the BMMSCs were stained by Annexin V-PE apoptosis detection kit I (BD Bioscience) following manufacture's protocol, and analyzed by FACS^Calibur (BD Bioscience).

[4] = test system: BMMSC-mediated bone formation; assay: BMMSC-mediated bone formation, subcutaneous BMMSC/HA/TCP implantation; type: in vivo; settings: 200 ng cytokine in hydrogel co-implanted with BMMSCs/HA/TCP, immunocompromised mice, 8 weeks post implantation
Procedure: BMMSC-mediated bone formation. Approximately 4.0×10^6 BMMSCs were mixed with hydroxyapatite/tricalcium phosphate (HA/TCP) ceramic particles (40 mg, Zimmer Inc., Warsaw, Ind.) as a carrier and subcutaneously implanted into the dorsal surface of 8-10 weeks old immunocompromised mice or C57BL/6J mice. At eight weeks post-implantation, the implants were harvested, fixed in 4% paraformaldehyde and then decalcified with 5% EDTA (pH 7.4), followed by paraffin embedding. The 6 μm paraffin sections were stained with hematoxylin and eosin (H&E) and analyzed by an NIH Image J. Five fields were selected and newly formed mineralized tissue area in each field was calculated and shown as a percentage to total tissue area.
Cytokines in BMMSC-mediated bone formation. Approximately 4.0×10^6 of littermate-derived or autologous BMMSCs were mixed with HA/TCP ceramic powders (40 mg, Zimmer Inc.), and hydrogel (Glycosan Biosysterms, Salt Lake City, Utah) with 200 ng IFN-γ, TNF-α, IL-4, IL-6 or IL-17A were covered on the surface of the implants as a slow released system. At eight weeks post-implantation, the implants were harvested and newly formed mineralized tissue areas were analyzed. […]
BMMSC-mediated bone formation. Approximately 4.0×10^6 of littermate-derived or autologous BMMSCs were mixed with hydroxyapatite/tricalcium phosphate (HA/TCP) ceramic particles (40 mg, Zimmer Inc., Warsaw, Ind.) as a carrier and subcutaneously implanted into the dorsal surface of 8-10 weeks old immunocompromised mice or C57BL6 mice. When aspirin was used, BMMSCs were treated with 50 μg/ml aspirin for 2 days and mixed with HA/TCP particles to be subcutaneously implanted into immunocompromised mice. When IFN-γ and TNF-α were used in the subcutaneous implants, 200 ng IFN-γ, TNF-α or/and 100 μg aspirin mixed with 250 μl hydrogel as a slow released system and subcutaneously co-implanted to the dorsal surface of 8-10 weeks old immunocompromised mice.
At eight weeks post-implantation, the implants were harvested, fixed in 4% paraformaldehyde and then decalcified with 5% EDTA (pH 7.4), followed by paraffin embedding. The 6 μm paraffin sections were stained with hematoxylin and eosin (H&E) and analyzed by an NIH Image J. Five fields were selected and newly formed mineralized tissue area in each field was calculated and shown as a percentage to total tissue area.

BMMSCs [5] = assay: Osteogenic differentiation assay (alizarin red staining); type: cell-based, mouse; settings: for mineralized nodule formation / osteogenic differentiation of BMMSCs: alizarin red
Procedure: (§3) Osteogenic differentiation assay. BMMSCs were cultured under osteogenic culture condition media containing 2 mM […] (Sigma-Aldrich), 100 μM L-ascorbic acid 2-phosphate and 10 nM dexamethasone (Sigma-Aldrich). Different doses of IFN-γ (50, 200 ng/ml) were added to the osteogenic culture condition media every 3 days. After the osteogenic induction, the cultures were stained with alizarin red. Expressions of Runx2, ALP, and OCN were assayed by Western blot analysis.

[6] = test system: Smad 6, Smad 7, Runx2, ALP, OCN; assay: Western blot of Smad 6, Smad 7 and osteogenic genes in BMMSCs; type: cell-based, mouse
Procedure: as §3, §1

[7] = 200 ng/ml cytokine, osteogenic media, 14 days
[8] = Fas^−/− BMMSCs from lpr mice and Fas knock down BMMSCs by siRNA
[9] = wild type BMMSCs, IFN-γ 50 ng/ml, TNF-α 20 ng/ml, alone or co-stimulated

COC(=O)CC[C@H](NC(=O)[C@H](CC(=O)OC)NC(=O)OCc1ccccc1)C(=O)N[C@H](C(=O)N[C@@H](CC(=O)OC)C(=O)CF)C(C)C [Caspase 3 inhibitor, Z-DEVD-FMK]
cleaved caspase 3 in IFN-γ/TNF-α-treated BMMSCs [1]: partially inhibition | cleaved caspase 8 in IFN-γ/TNF-α-treated BMMSCs [1]: no inhibitive effect | number of BMMSCs with Fas internalization (Fas): reduced number of Fas internalization | IFN-γ/TNF-α-induced BMMSC death (BMMSCs [2]): rescuing IFN-γ/TNF-α-induced BMMSC death

C/C1=C/C(=O)O[C@@H]2C[C@@H](CC[C@H](C)/C=C\C=C\CC1)O[C@@](O)([C@@H]1CSC(=O)N1)C2 [Lnt A, Latrunculin A]
cleaved caspase 3 in IFN-γ/TNF-α-treated BMMSCs [1]: significantly reduced | cleaved caspase 8 in IFN-γ/TNF-α-treated BMMSCs [1]: significantly reduced | cleaved caspase 3 in IFN-γ/TNF-α-treated BMMSCs ([1]; listed as LntA): inhibition of cleaved caspase 3 and 8 | cleaved caspase 8 in IFN-γ/TNF-α-treated BMMSCs ([1]; listed as LntA): inhibition of cleaved caspase 3 and 8 | IFN-γ/TNF-α-induced BMMSC death (BMMSCs [2]): significantly reduced | IFN-γ/TNF-α-induced BMMSC death (BMMSCs [2]; listed as LntA): partially rescue

COC(=O)C[C@H](NC(=O)[C@H](C)NC(=O)[C@@H](NC(=O)OCc1ccccc1)C(C)C)C(=O)CF [pan caspase inhibitor, Z-VAD (OMe)-FMK] (Cbz-Val-Ala-Asp(OMe)-CH2F)
number of BMMSCs with Fas internalization (Fas): reduced number of Fas internalization

TGF-β1: recombined TGF-β1 cytokine co-cultured with BMMSCs
BMMSC death / viability (BMMSCs [3]; toluidine blue staining): no effect

B1: IL-4: Recombinant murine IL-4 purchased from PeproTech (protein, UniProt P07750 21-140, looked up)
Interleukin-4: HIHGCDKNHLREIIGILNEVTGEGTPCTEMDVPNVLTATKNTTESELVCRASKVLRIFYLKHGKTPCLKKNSSVLMELQRLFRAFRCLDSSISCTMNESKSTSLKDFLESLKSIMQMDYS
new bone formation in BMMSC implants [4]: a reduction in new bone formation; also recorded: slightly inhibited | mineralized nodule formation / osteogenic differentiation of BMMSCs (BMMSCs [5]; [7]): reduced mineralized nodule formation; also recorded: partial inhibition | BMMSC death / viability (BMMSCs [3]; toluidine blue staining): no effect

B2: IFN-γ: Recombinant murine IFN-γ purchased from PeproTech (protein, UniProt P01580 23-155, looked up)
Interferon gamma: HGTVIESLESLNNYFNSSGIDVEEKSLFLDIWRNWQKDGDMKILQSQIISFYLRLFEVLKDNQAISNNISVIESHLITTFFSNSKAKKDAFMSIAKFEVNNPQVQRQAFNELIRVVHQLLPESSLRKRKRSRC
new bone formation in BMMSC implants [4]: completely blockage of new bone formation; also recorded: inhibited subcutaneous bone formation; also recorded: reduced BMMSC-mediated bone formation; also recorded: significantly reduced bone formation | mineralized nodule formation / osteogenic differentiation of BMMSCs (BMMSCs [5]; 50 ng/ml IFN-γ): no significant inhibitive effect; also recorded: no inhibitory effect | mineralized nodule formation / osteogenic differentiation of BMMSCs (BMMSCs [5]; [7]): significantly inhibited mineralized nodule formation; also recorded: significant reduction in mineralized nodule formation; also recorded: inhibited osteogenic differentiation | osteogenesis of Fas-deficient BMMSCs (BMMSCs [5]; [8]): failed to block osteogenesis; also recorded: failed to reduce ostoegenic differentiation | Smad 6 elevation and inhibition of osteogenic genes ([6]; 50 ng/ml IFN-γ): not observed | Smad 6 expression ([6]; 200 ng/ml IFN-γ): elevated; also recorded: up-regulated expression | expression of osteogenic genes Runx2, ALP and OCN ([6]; 200 ng/ml IFN-γ): inhibited; also recorded: down-regulated expression | expression levels of Smad 6 and Runx2 [6, 8]: failed to block osteogenesis and alter expression levels of Smad 6 and Runx2; also recorded: failed to reduce ostoegenic differentiation and alter expression levels of Smad 6 and Runx2 | expression level of Smad 7 ([6]; IFN-γ-treated BMMSCs): not altered | Fas expression [1, 9]: up-regulated expression of Fas; also recorded: activated | activation of caspase 3 and caspase 8 [1, 9]: no activation of caspase 3 and caspase 8; also recorded: without activating caspase 3 and caspase 8 | TNF-α-induced BMMSC apoptosis (BMMSCs [3]; IFN-γ 50 ng/ml added to TNF-α 0, 5, 50, 100 ng/ml, flow cytometric analysis): significantly enhanced TNF-α-induced BMMSC apoptosis | TNF-α-induced BMMSC apoptosis (BMMSCs [3]; IFN-γ 50 ng/ml added to TNF-α 50-200 ng/ml, toluidine blue staining): synergistically enhanced; also recorded: significantly enhanced BMMSC apoptosis | TNF-α-induced BMMSC apoptosis (BMMSCs [3]; IFN-γ 50 ng/ml with TNF-α 20 ng/ml, 7AAD/Annexin staining): accelerated; also recorded: enhanced | BMMSC death (BMMSCs [3]; IFN-γ 1 to 50 ng/ml with TNF-α 50 ng/ml): dose dependent BMMSC death; also recorded: correlated with IFN-γ concentration | BMMSC death (BMMSCs [3]; IFN-γ 100-200 ng/ml with TNF-α 50 ng/ml): no any BMMSC survived; also recorded: complete BMMSC apoptosis | BMMSC death / viability (BMMSCs [3]; toluidine blue staining): no effect; also recorded: not able to induce BMMSC apoptosis

B3: IL-6: Recombinant murine IL-6 purchased from PeproTech (protein, UniProt P08505 25-211, looked up)
Interleukin-6: FPTSQVRRGDFTEDTTPNRPVYTTSQVGGLITHVLWEIVEMRKELCNGNSDCMNNDDALAENNLKLPEIQRNDGCYQTGYNQEICLLKISSGLLEYHSYLEYMKNNLKDNKKDKARVLQRDTETLIHIFNQEVKDLHKIVLPTPISNALLTDKLESQKEWLRTKTIQFILKSLEEFLKVTLRSTRQT
new bone formation in BMMSC implants [4]: a reduction in new bone formation; also recorded: slightly inhibited | mineralized nodule formation / osteogenic differentiation of BMMSCs (BMMSCs [5]; [7]): no inhibition effect | BMMSC death / viability (BMMSCs [3]; toluidine blue staining): no effect

B4: IL-17A: Recombinant murine IL-17A purchased from PeproTech (protein, UniProt Q62386 26-158, looked up)
Interleukin-17A: AAIIPQSSACPNTEAKDFLQNVKVNLKVFNSLGAKVSSRRPSDYLNRSTSPWTLHRNEDPDRYPSVIWEAQCRHQRCVNAEGKLDHHMNSVLIQQEILVLKREPESCPFTFRVEKMLVGVGCTCVASIVRQAA
new bone formation in BMMSC implants [4]: no inhibitory effect | new bone formation in BMMSC implants ([4]; listed as IL-17): no inhibitive effect | mineralized nodule formation / osteogenic differentiation of BMMSCs (BMMSCs [5]; [7]): no inhibition effect | BMMSC death / viability (BMMSCs [3]; toluidine blue staining): no effect
